Results as given in patent publication EP4713370A2 (dated 2026).

What was measured:
[1] = biological target: T1, CD79b on target B cell lines (Ramos (CD79b+) cells; Daudi cells) (UniProt P40259 29-229, limits assumed); assay: flow cytometry on Ramos cells, anti-human IgG Fc PE
T1 construct: whole, on cells; On cells CD79b stands in the B cell receptor complex with CD79a; also called Ramos (CD79+) cells; CD79b expression cells
T1 sequence (looked up): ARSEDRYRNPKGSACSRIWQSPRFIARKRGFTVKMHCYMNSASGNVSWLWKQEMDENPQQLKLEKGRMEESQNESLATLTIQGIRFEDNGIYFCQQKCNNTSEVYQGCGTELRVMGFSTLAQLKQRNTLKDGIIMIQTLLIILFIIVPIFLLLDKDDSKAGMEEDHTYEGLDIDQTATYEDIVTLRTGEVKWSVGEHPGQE

[2] = biological target: T2, human NKp46 expressed on cells (primary human NK cells; CHOK1-hNKp46 cells) (human, UniProt O76036 22-304); assay: flow cytometry on CHOK1-hNKp46 cells, anti-human IgG Fc PE
T2 construct: whole, on cells; also called cell surface expressed NKp46; NCR1
T2 sequence (O76036 22-304): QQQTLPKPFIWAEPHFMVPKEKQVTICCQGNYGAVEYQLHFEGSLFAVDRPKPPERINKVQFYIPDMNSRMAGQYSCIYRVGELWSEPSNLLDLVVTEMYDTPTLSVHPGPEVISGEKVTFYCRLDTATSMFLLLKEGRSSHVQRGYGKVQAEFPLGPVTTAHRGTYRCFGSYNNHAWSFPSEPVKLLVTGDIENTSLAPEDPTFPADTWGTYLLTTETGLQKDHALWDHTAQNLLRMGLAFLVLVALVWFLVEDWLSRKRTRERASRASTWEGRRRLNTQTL

[3] = biological target: T1, CD79b on target B cell lines (Ramos …); assay: flow cytometry on Ramos cells, anti-human IgG PE
[4] = biological target: T2, human NKp46 expressed on cells (primary …); assay: flow cytometry on purified CD56+ human NK cells, anti-human IgG PE

Row | Binder | binding result [1] | binding result [2] | binding result [3] | binding result [4]
1 | ch44G2/ch6-1 (LC) Fc-optimized (bispecific antibody, human IgG1, kappa, LC format: the NKp46 scFv stands at the C terminus of the anti-CD79b light chain, with optimized Fc (G236A, A330L, I332E, EU numbering); also called chimeric CD79b/NKp46 bispecific antibody; NK cell engager) heavy: QSVRETGGGLVQPGGSLKLSCKASGFTINIDYWISWVRQAPGKGLEWIGIIDPGDGTTYFAIWVNGRFTISFDNTQNTVDLQMNSLTAADTATYFCVREFSASAYQYDLWGPGTLVTVSSASTKGPSVFPLAPSSKSTSGGTAALGCLVKDYFPEPVTVSWNSGALTSGVHTFPAVLQSSGLYSLSSVVTVPSSSLGTQTYICNVNHKPSNTKVDKRVEPKSCDKTHTCPPCPAPELLAGPSVFLFPPKPKDTLMISRTPEVTCVVVDVSHEDPEVKFNWYVDGVEVHNAKTKPREEQYNSTYRVVSVLTVLHQDWLNGKEYKCKVSNKALPLPEEKTISKAKGQPREPQVYTLPPSRDELTKNQVSLTCLVKGFYPSDIAVEWESNGQPENNYKTTPPVLDSDGSFFLYSKLTVDKSRWQQGNVFSCSVMHEALHNHYTQKSLSLSPGK light: DLVMTQTPSSVSAAVGGTVSINCRASEDIENYLAWYQQKPGQPPKLLIYRASTLSSGVSSRFSGSGSGTEFTLTISGVQPDDAATYYCQQGYRNSNVDNPFGGGTEMVVKRTVAAPSVFIFPPSDEQLKSGTASVVCLLNNFYPREAKVQWKVDNALQSGNSQESVTEQDSKDSTYSLSSTLTLSKADYEKHKVYACEVTHQGLSSPVTKSFNRGECGGGGSGGGGSGGGGSGGGGSADVVMTQTPASVSEPVGGTITINCQASENIYSSLAWYQQKPGQPPKLLMYDVSDLASGVPSRFSGSGSGTEFALTISDVQPDDAATYFCLGGYPSNNYRMAFGGGTEVVVKGGGGSGGGGSGGGGSGGGGSQSLEESGGGLVQPEGSLTLTCTASGFSFSSSAWICWVRQAPGKGLEWIGCINTVSVNAYYASWAKGRFTISKTSSTTVTLQVTSLTAADTATHFCARNPYNSLRLWGPGTLVTVSS | binds | binds |  | 
2 | h44G2/h6-1 (HC) Fc-optimized (bispecific antibody, human IgG1, kappa, HC format, optimized Fc; also called humanized CD79b/NKp46 bispecific antibody; humanized NK cell engager) heavy: EQQLVETGGGLIQPGGSLRLSCAASGFTINIDYWISWVRQAPGKGLEWIGIIDPGDGTTYFAIWVSGRFTISFDNSKNTVYLQMNSLRAEDTAVYFCVREFSASAYQYDLWGPGTLVTVSSASTKGPSVFPLAPSSKSTSGGTAALGCLVKDYFPEPVTVSWNSGALTSGVHTFPAVLQSSGLYSLSSVVTVPSSSLGTQTYICNVNHKPSNTKVDKKVEPKSCDKTHTCPPCPAPELLAGPSVFLFPPKPKDTLMISRTPEVTCVVVDVSHEDPEVKFNWYVDGVEVHNAKTKPREEQYNSTYRVVSVLTVLHQDWLNGKEYKCKVSNKALPLPEEKTISKAKGQPREPQVYTLPPSRDELTKNQVSLTCLVKGFYPSDIAVEWESNGQPENNYKTTPPVLDSDGSFFLYSKLTVDKSRWQQGNVFSCSVMHEALHNHYTQKSLSLSPGGGGGSGGGGSGGGGSDVQMTQSPSTLSASVGDRVTITCQASENIYSSLAWYQQKPGKPPKLLMYDVSDLASGVPSRFSGSGSGTEFTLTISSLQPDDFATYFCLGGYPSNNYRMAFGCGTKVEIKGGGGSGGGGSGGGGSGGGGSEQQLLESGGGLVQPGGSLRLSCAASGFSFSSSAWIVWVRQAPGKCLEWIGVINTVSVNAYYASWAKGRFTISKDSSKNTVYLQMNSLRAEDTAVYFCARNPYNSLRLWGPGTLVTVSS light: ELVMTQSPATLSVSPGERATLSCRASEDIENYLAWYQQKPGQPPRLLIYRASTLSSGVPARFSGSGSGTEFTLTISSLQSEDFAVYYCQQGYRNSNVDNPFGGGTKVEIKRTVAAPSVFIFPPSDEQLKSGTASVVCLLNNFYPREAKVQWKVDNALQSGNSQESVTEQDSKDSTYSLSSTLTLSKADYEKHKVYACEVTHQGLSSPVTKSFNRGEC | binds | binds |  | 
3 | ch44G2/ch6-1 (HC) Fc-optimized (bispecific antibody, human IgG1, kappa, HC format: the NKp46 scFv stands at the C terminus of the heavy chain Fc, with optimized Fc; also called chimeric CD79b/NKp46 bispecific antibody; NK cell engager) heavy: QSVRETGGGLVQPGGSLKLSCKASGFTINIDYWISWVRQAPGKGLEWIGIIDPGDGTTYFAIWVNGRFTISFDNTQNTVDLQMNSLTAADTATYFCVREFSASAYQYDLWGPGTLVTVSSASTKGPSVFPLAPSSKSTSGGTAALGCLVKDYFPEPVTVSWNSGALTSGVHTFPAVLQSSGLYSLSSVVTVPSSSLGTQTYICNVNHKPSNTKVDKRVEPKSCDKTHTCPPCPAPELLAGPSVFLFPPKPKDTLMISRTPEVTCVVVDVSHEDPEVKFNWYVDGVEVHNAKTKPREEQYNSTYRVVSVLTVLHQDWLNGKEYKCKVSNKALPLPEEKTISKAKGQPREPQVYTLPPSRDELTKNQVSLTCLVKGFYPSDIAVEWESNGQPENNYKTTPPVLDSDGSFFLYSKLTVDKSRWQQGNVFSCSVMHEALHNHYTQKSLSLSPGKGGGGSGGGGSGGGGSADVVMTQTPASVSEPVGGTITINCQASENIYSSLAWYQQKPGQPPKLLMYDVSDLASGVPSRFSGSGSGTEFALTISDVQPDDAATYFCLGGYPSNNYRMAFGGGTEVVVKGGGGSGGGGSGGGGSGGGGSQSLEESGGGLVQPEGSLTLTCTASGFSFSSSAWICWVRQAPGKGLEWIGCINTVSVNAYYASWAKGRFTISKTSSTTVTLQVTSLTAADTATHFCARNPYNSLRLWGPGTLVTVSS light: DLVMTQTPSSVSAAVGGTVSINCRASEDIENYLAWYQQKPGQPPKLLIYRASTLSSGVSSRFSGSGSGTEFTLTISGVQPDDAATYYCQQGYRNSNVDNPFGGGTEMVVKRTVAAPSVFIFPPSDEQLKSGTASVVCLLNNFYPREAKVQWKVDNALQSGNSQESVTEQDSKDSTYSLSSTLTLSKADYEKHKVYACEVTHQGLSSPVTKSFNRGEC | binds | binds |  | 
4 | h44G2/h6-1 (LC) Fc-optimized (bispecific antibody, human IgG1, kappa, LC format, optimized Fc; also called humanized CD79b/NKp46 bispecific antibody; humanized NK cell engager) heavy: EQQLVETGGGLIQPGGSLRLSCAASGFTINIDYWISWVRQAPGKGLEWIGIIDPGDGTTYFAIWVSGRFTISFDNSKNTVYLQMNSLRAEDTAVYFCVREFSASAYQYDLWGPGTLVTVSSASTKGPSVFPLAPSSKSTSGGTAALGCLVKDYFPEPVTVSWNSGALTSGVHTFPAVLQSSGLYSLSSVVTVPSSSLGTQTYICNVNHKPSNTKVDKKVEPKSCDKTHTCPPCPAPELLAGPSVFLFPPKPKDTLMISRTPEVTCVVVDVSHEDPEVKFNWYVDGVEVHNAKTKPREEQYNSTYRVVSVLTVLHQDWLNGKEYKCKVSNKALPLPEEKTISKAKGQPREPQVYTLPPSRDELTKNQVSLTCLVKGFYPSDIAVEWESNGQPENNYKTTPPVLDSDGSFFLYSKLTVDKSRWQQGNVFSCSVMHEALHNHYTQKSLSLSPGK light: ELVMTQSPATLSVSPGERATLSCRASEDIENYLAWYQQKPGQPPRLLIYRASTLSSGVPARFSGSGSGTEFTLTISSLQSEDFAVYYCQQGYRNSNVDNPFGGGTKVEIKRTVAAPSVFIFPPSDEQLKSGTASVVCLLNNFYPREAKVQWKVDNALQSGNSQESVTEQDSKDSTYSLSSTLTLSKADYEKHKVYACEVTHQGLSSPVTKSFNRGECGGGGSGGGGSGGGGSDVQMTQSPSTLSASVGDRVTITCQASENIYSSLAWYQQKPGKPPKLLMYDVSDLASGVPSRFSGSGSGTEFTLTISSLQPDDFATYFCLGGYPSNNYRMAFGCGTKVEIKGGGGSGGGGSGGGGSGGGGSEQQLLESGGGLVQPGGSLRLSCAASGFSFSSSAWIVWVRQAPGKCLEWIGVINTVSVNAYYASWAKGRFTISKDSSKNTVYLQMNSLRAEDTAVYFCARNPYNSLRLWGPGTLVTVSS | binds | binds |  | 
5 | ch44G2/ch3-7 Fc-silenced (bispecific antibody, human IgG1, kappa, L234A L235A, LC format: the NKp46 scFv (VL-GS-VH) is joined to the C terminus of the anti-CD79b light chain, with LALAPG silenced Fc; also called CD79b/NKp46 bispecific antibody; 44G2/3-7) heavy: not shown light: DLVMTQTPSSVSAAVGGTVSINCRASEDIENYLAWYQQKPGQPPKLLIYRASTLSSGVSSRFSGSGSGTEFTLTISGVQPDDAATYYCQQGYRNSNVDNPFGGGTEMVVKRTVAAPSVFIFPPSDEQLKSGTASVVCLLNNFYPREAKVQWKVDNALQSGNSQESVTEQDSKDSTYSLSSTLTLSKADYEKHKVYACEVTHQGLSSPVTKSFNRGECGGGGSGGGGSGGGGSGGGGSAFELTQTPSSVEAAVGGTVTINCQASQDIYIYLAWYQQKPGQPPKLLIYSASTLASGVSSRFTGSRSGTQFTLTISDLEPADAATYYCQSYDGTSNTGFGGGTEVVVRGGGGSGGGGSGGGGSGGGGSQSLEESGGRLVTPGTPLTLTCTVSGFSPSSYYMSWVRQAPGKGLEYIGIIFSGGSTWYASWAKGRVTISRTSTTVDLKMTSLTTEDTATYFCARGDAVGSGYWGLWGPGTLVTVSS |  |  | binds | binds
